Test results from the MegaScale stability set (Tsuboyama et al. 2023).

B1: 5KPH (parent)
chain: EEKRQVKQVAKEKLLEQSPNSKVQVRRVQKQGNTIRVELELRTNGKKENYTVEVERQGNTWTVKRITRT

Variants of: B1
Assay: folding stability dG (cDNA display proteolysis); higher = more stable
Conditions: PBS, room temperature

Point of comparison: EEKRQVKQVAKEKLLEQSPNSKVQVRRVQKQGNTIRVELELRTNGKKENYTVEVERQGITWTVKRITRT, “folding stability dG” value 3.54 kcal/mol. Against it:
- EEKRQVKQVAKEKLLEQSPNSKVQVRRVQKQGNTIRVELELRTNGKKENYTVEVERQGNTDTVKRITRT — lower, 1.07 kcal/mol
- EEKRQVKQVAKEKLLEQSPNSKVQVRRVQKQGNTIRVELELRTNGKKENYTVEVERQGNTITVKRITRT — lower, 3.14 kcal/mol
- EEKRQVKQVAKEKLLEQSPNSKVQVRRVQKQGNTIRVELELRTNGKKENYTVEVERQGNTKTVKRITRT — lower, 0.975 kcal/mol
- EEKRQVKQVAKEKLLEQSPNSKVQVRRVQKQGNTIRVELELRTNGKKENYTVEVERQGNTETVKRITRT — lower, 0.848 kcal/mol
- EEKRQVKQVAKEKLLEQSPNSKVQVRRVQKQGNTIRVELELRTNGKKENYTVEVERQGNTTTVKRITRT — lower, 2.21 kcal/mol
- EEKRQVKQVAKEKLLEQSPNSKVQVRRVQKQGNTIRVELELRTNGKKENYTVEVERQGNTGTVKRITRT — lower, 1.39 kcal/mol
- EEKRQVKQVAKEKLLEQSPNSKVQVRRVQKQGNTIRVELELRTNGKKENYTVEVERQGNTPTVKRITRT — lower, 1.94 kcal/mol
- EEKRQVKQVAKEKLLEQSPNSKVQVRRVQKQGNTIRVELELRTNGKKENYTVEVERQGNTLTVKRITRT — higher, 3.64 kcal/mol
- EEKRQVKQVAKEKLLEQSPNSKVQVRRVQKQGNTIRVELELRTNGKKENYTVEVERQGNTATVKRITRT — lower, 2.23 kcal/mol
- EEKRQVKQVAKEKLLEQSPNSKVQVRRVQKQGNTIRVELELRTNGKKENYTVEVERQGNTSTVKRITRT — lower, 2 kcal/mol
- EEKRQVKQVAKEKLLEQSPNSKVQVRRVQKQGNTIRVELELRTNGKKENYTVEVERQGNTCTVKRITRT — lower, 2.68 kcal/mol
- EEKRQVKQVAKEKLLEQSPNSKVQVRRVQKQGNTIRVELELRTNGKKENYTVEVERQGNTRTVKRITRT — lower, 1.41 kcal/mol
- EEKRQVKQVAKEKLLEQSPNSKVQVRRVQKQGNTIRVELELRTNGKKENYTVEVERQGNTNTVKRITRT — lower, 1.83 kcal/mol
- EEKRQVKQVAKEKLLEQSPNSKVQVRRVQKQGNTIRVELELRTNGKKENYTVEVERQGNTHTVKRITRT — lower, 2.59 kcal/mol
- EEKRQVKQVAKEKLLEQSPNSKVQVRRVQKQGNTIRVELELRTNGKKENYTVEVERQGNTQTVKRITRT — lower, 1.88 kcal/mol
- EEKRQVKQVAKEKLLEQSPNSKVQVRRVQKQGNTIRVELELRTNGKKENYTVEVERQGNTFTVKRITRT — higher, 3.74 kcal/mol
- EEKRQVKQVAKEKLLEQSPNSKVQVRRVQKQGNTIRVELELRTNGKKENYTVEVERQGNTMTVKRITRT — lower, 3.21 kcal/mol
- EEKRQVKQVAKEKLLEQSPNSKVQVRRVQKQGNTIRVELELRTNGKKENYTVEVERQGCTWTVKRITRT — lower, 3.22 kcal/mol
- EEKRQVKQVAKEKLLEQSPNSKVQVRRVQKQGNTIRVELELRTNGKKENYTVEVERQGATWTVKRITRT — higher, 3.69 kcal/mol
- EEKRQVKQVAKEKLLEQSPNSKVQVRRVQKQGNTIRVELELRTNGKKENYTVEVERQGKTWTVKRITRT — higher, 3.73 kcal/mol
- EEKRQVKQVAKEKLLEQSPNSKVQVRRVQKQGNTIRVELELRTNGKKENYTVEVERQGQTWTVKRITRT — higher, 3.77 kcal/mol
- EEKRQVKQVAKEKLLEQSPNSKVQVRRVQKQGNTIRVELELRTNGKKENYTVEVERQGTTWTVKRITRT — higher, 3.77 kcal/mol
- EEKRQVKQVAKEKLLEQSPNSKVQVRRVQKQGNTIRVELELRTNGKKENYTVEVERQGETWTVKRITRT — higher, 3.92 kcal/mol
- EEKRQVKQVAKEKLLEQSPNSKVQVRRVQKQGNTIRVELELRTNGKKENYTVEVERQGSTWTVKRITRT — higher, 3.62 kcal/mol
- EEKRQVKQVAKEKLLEQSPNSKVQVRRVQKQGNTIRVELELRTNGKKENYTVEVERQGDTWTVKRITRT — higher, 4.01 kcal/mol
- EEKRQVKQVAKEKLLEQSPNSKVQVRRVQKQGNTIRVELELRTNGKKENYTVEVERQGGTWTVKRITRT — higher, 4 kcal/mol
- EEKRQVKQVAKEKLLEQSPNSKVQVRRVQKQGNTIRVELELRTNGKKENYTVEVERQGWTWTVKRITRT — lower, 3.5 kcal/mol
- EEKRQVKQVAKEKLLEQSPNSKVQVRRVQKQGNTIRVELELRTNGKKENYTVEVERQGMTWTVKRITRT — higher, 3.92 kcal/mol
- EEKRQVKQVAKEKLLEQSPNSKVQVRRVQKQGNTIRVELELRTNGKKENYTVEVERQGVTWTVKRITRT — lower, 3.42 kcal/mol
- EEKRQVKQVAKEKLLEQSPNSKVQVRRVQKQGNTIRVELELRTNGKKENYTVEVERQGFTWTVKRITRT — the same, 3.54 kcal/mol
- EEKRQVKQVAKEKLLEQSPNSKVQVRRVQKQGNTIRVELELRTNGKKENYTVEVERQGPTWTVKRITRT — higher, 3.84 kcal/mol
- EEKRQVKQVAKEKLLEQSPNSKVQVRRVQKQGNTIRVELELRTNGKKENYTVEVERQGLTWTVKRITRT — higher, 3.68 kcal/mol
- EEKRQVKQVAKEKLLEQSPNSKVQVRRVQKQGNTIRVELELRTNGKKENYTVEVERQGYTWTVKRITRT — higher, 3.82 kcal/mol
- EEKRQVKQVAKEKLLEQSPNSKVQVRRVQKQGNTIRVELELRTNGKKENYTVEVERQGRTWTVKRITRT — lower, 3.33 kcal/mol
- EEKRQVKQVAKEKLLEQSPNSKVQVRRVQKQGNTIRVELELRTNGKKENYTVEVERQGHTWTVKRITRT — higher, 3.62 kcal/mol
- EEKRQVKQVAKEKLLEQSPNSKVQVRRVQKQGNTIRVELELRTNGKKENYTVEVERQGNWWTVKRITRT — higher, 4.16 kcal/mol
- EEKRQVKQVAKEKLLEQSPNSKVQVRRVQKQGNTIRVELELRTNGKKENYTVEVERQGNMWTVKRITRT — higher, 4 kcal/mol
- EEKRQVKQVAKEKLLEQSPNSKVQVRRVQKQGNTIRVELELRTNGKKENYTVEVERQGNSWTVKRITRT — higher, 4.13 kcal/mol
- EEKRQVKQVAKEKLLEQSPNSKVQVRRVQKQGNTIRVELELRTNGKKENYTVEVERQGNRWTVKRITRT — higher, 3.97 kcal/mol
- EEKRQVKQVAKEKLLEQSPNSKVQVRRVQKQGNTIRVELELRTNGKKENYTVEVERQGNDWTVKRITRT — higher, 3.77 kcal/mol
- EEKRQVKQVAKEKLLEQSPNSKVQVRRVQKQGNTIRVELELRTNGKKENYTVEVERQGNGWTVKRITRT — higher, 4.12 kcal/mol
- EEKRQVKQVAKEKLLEQSPNSKVQVRRVQKQGNTIRVELELRTNGKKENYTVEVERQGNLWTVKRITRT — higher, 3.63 kcal/mol
- EEKRQVKQVAKEKLLEQSPNSKVQVRRVQKQGNTIRVELELRTNGKKENYTVEVERQGNCWTVKRITRT — lower, 3.33 kcal/mol
- EEKRQVKQVAKEKLLEQSPNSKVQVRRVQKQGNTIRVELELRTNGKKENYTVEVERQGNYWTVKRITRT — higher, 3.79 kcal/mol
- EEKRQVKQVAKEKLLEQSPNSKVQVRRVQKQGNTIRVELELRTNGKKENYTVEVERQGNAWTVKRITRT — higher, 3.83 kcal/mol
- EEKRQVKQVAKEKLLEQSPNSKVQVRRVQKQGNTIRVELELRTNGKKENYTVEVERQGNNWTVKRITRT — higher, 4.07 kcal/mol
- EEKRQVKQVAKEKLLEQSPNSKVQVRRVQKQGNTIRVELELRTNGKKENYTVEVERQGNHWTVKRITRT — higher, 4.02 kcal/mol
- EEKRQVKQVAKEKLLEQSPNSKVQVRRVQKQGNTIRVELELRTNGKKENYTVEVERQGNIWTVKRITRT — higher, 4.11 kcal/mol
- EEKRQVKQVAKEKLLEQSPNSKVQVRRVQKQGNTIRVELELRTNGKKENYTVEVERQGNPWTVKRITRT — lower, 1.45 kcal/mol
- EEKRQVKQVAKEKLLEQSPNSKVQVRRVQKQGNTIRVELELRTNGKKENYTVEVERQGNKWTVKRITRT — higher, 3.99 kcal/mol
- EEKRQVKQVAKEKLLEQSPNSKVQVRRVQKQGNTIRVELELRTNGKKENYTVEVERQGNQWTVKRITRT — higher, 4.23 kcal/mol
- EEKRQVKQVAKEKLLEQSPNSKVQVRRVQKQGNTIRVELELRTNGKKENYTVEVERQGNVWTVKRITRT — higher, 4.01 kcal/mol
- EEKRQVKQVAKEKLLEQSPNSKVQVRRVQKQGNTIRVELELRTNGKKENYTVEVERQGNEWTVKRITRT — higher, 4.16 kcal/mol
- EEKRQVKQVAKEKLLEQSPNSKVQVRRVQKQGNTIRVELELRTNGKKENYTVEVERQGNFWTVKRITRT — higher, 3.96 kcal/mol
- EEKRQVKQVAKEKLLEQSPNSKVQVRRVQKQGNTIRVELELRTNGKKENYTVEVERQKNTWTVKRITRT — lower, 3.4 kcal/mol
- EEKRQVKQVAKEKLLEQSPNSKVQVRRVQKQGNTIRVELELRTNGKKENYTVEVERQDNTWTVKRITRT — higher, 3.75 kcal/mol
- EEKRQVKQVAKEKLLEQSPNSKVQVRRVQKQGNTIRVELELRTNGKKENYTVEVERQNNTWTVKRITRT — higher, 3.7 kcal/mol
- EEKRQVKQVAKEKLLEQSPNSKVQVRRVQKQGNTIRVELELRTNGKKENYTVEVERQTNTWTVKRITRT — lower, 2.84 kcal/mol
- EEKRQVKQVAKEKLLEQSPNSKVQVRRVQKQGNTIRVELELRTNGKKENYTVEVERQWNTWTVKRITRT — lower, 3 kcal/mol
- EEKRQVKQVAKEKLLEQSPNSKVQVRRVQKQGNTIRVELELRTNGKKENYTVEVERQRNTWTVKRITRT — lower, 2.97 kcal/mol
- EEKRQVKQVAKEKLLEQSPNSKVQVRRVQKQGNTIRVELELRTNGKKENYTVEVERQINTWTVKRITRT — lower, 2.86 kcal/mol
- EEKRQVKQVAKEKLLEQSPNSKVQVRRVQKQGNTIRVELELRTNGKKENYTVEVERQLNTWTVKRITRT — lower, 3.33 kcal/mol
- EEKRQVKQVAKEKLLEQSPNSKVQVRRVQKQGNTIRVELELRTNGKKENYTVEVERQYNTWTVKRITRT — lower, 3.15 kcal/mol
- EEKRQVKQVAKEKLLEQSPNSKVQVRRVQKQGNTIRVELELRTNGKKENYTVEVERQVNTWTVKRITRT — lower, 3.02 kcal/mol
- EEKRQVKQVAKEKLLEQSPNSKVQVRRVQKQGNTIRVELELRTNGKKENYTVEVERQANTWTVKRITRT — lower, 3.33 kcal/mol
- EEKRQVKQVAKEKLLEQSPNSKVQVRRVQKQGNTIRVELELRTNGKKENYTVEVERQQNTWTVKRITRT — lower, 3.5 kcal/mol
- EEKRQVKQVAKEKLLEQSPNSKVQVRRVQKQGNTIRVELELRTNGKKENYTVEVERQMNTWTVKRITRT — lower, 3.24 kcal/mol
- EEKRQVKQVAKEKLLEQSPNSKVQVRRVQKQGNTIRVELELRTNGKKENYTVEVERQENTWTVKRITRT — higher, 3.7 kcal/mol
- EEKRQVKQVAKEKLLEQSPNSKVQVRRVQKQGNTIRVELELRTNGKKENYTVEVERQPNTWTVKRITRT — lower, 2.25 kcal/mol
- EEKRQVKQVAKEKLLEQSPNSKVQVRRVQKQGNTIRVELELRTNGKKENYTVEVERQCNTWTVKRITRT — lower, 3.16 kcal/mol
- EEKRQVKQVAKEKLLEQSPNSKVQVRRVQKQGNTIRVELELRTNGKKENYTVEVERQSNTWTVKRITRT — lower, 3.36 kcal/mol
- EEKRQVKQVAKEKLLEQSPNSKVQVRRVQKQGNTIRVELELRTNGKKENYTVEVERQHNTWTVKRITRT — lower, 3.4 kcal/mol
- EEKRQVKQVAKEKLLEQSPNSKVQVRRVQKQGNTIRVELELRTNGKKENYTVEVERQFNTWTVKRITRT — lower, 3.43 kcal/mol
- EEKRQVKQVAKEKLLEQSPNSKVQVRRVQKQGNTIRVELELRTNGKKENYTVEVERVGNTWTVKRITRT — higher, 4.18 kcal/mol
- EEKRQVKQVAKEKLLEQSPNSKVQVRRVQKQGNTIRVELELRTNGKKENYTVEVERYGNTWTVKRITRT — higher, 4.03 kcal/mol
- EEKRQVKQVAKEKLLEQSPNSKVQVRRVQKQGNTIRVELELRTNGKKENYTVEVERTGNTWTVKRITRT — higher, 4.03 kcal/mol
- EEKRQVKQVAKEKLLEQSPNSKVQVRRVQKQGNTIRVELELRTNGKKENYTVEVERWGNTWTVKRITRT — higher, 3.83 kcal/mol
